Test results as given in PMC11580166, “VPS26 Moonlights as a β-Arrestin-like Adapter for a 7-Transmembrane RGS Protein in Arabidopsis thaliana” (Biochemistry, 2024).

B1: Vacuolar Protein Sorting-Associated 26B (AtVPS26B) [Arabidopsis thaliana] / Vacuolar Protein Sorting-Associated 26A (AtVPS26A) [Arabidopsis thaliana] (parent complex)
chain 1: MNYLLGAFKPACNISITFSDGKNRKQVPMKKENGQTALVPLFHSQDTISGKVCIEPYQGKKVEHNGVKVELLGQIEMYFDRGNFYDFTSLVRELDVPGEIYERKTYPFEFPTVEMPYETYNGVNVRLRYVLKVTVTRGYAGSILEYQELVVRNYAPLPDINNSIKMEVGIEDCLHIEFEYNKSKYHLKDVILGKIYFLLVRIKMKNMDLEIRRRESTGAGANTHVETETLAKFELMDGTPVRGESIPVRLFLAPYDLTPTHRNINNKFSVKYYLNLVLVDEEDRRYFKQQEITLYRLKEDASS
chain 2: MNYLLGAFKPACNISITFTDGKNRKQVPTKKDNGQIVMNPLFQSQETIAGKINIEPYQGKKVEHNGVKVELLGQIEMYFDRGNFYDFTSLVREIDVPGEIYERKTYPFEFSSVEMPYETYNGVNVRLRYVLKVTVTRGYAGSIVEYQDFVVRNYVPLPPINNSIKMEVGIEDCLHIEFEYNKSKYHLKDVILGKIYFLLVRIKIKNMDLEIRRRESTGAGANTHVETETLAKFELMDGAPVRGESIPVRVFLTPYDLTPTHKNINNKFSVKYYLNLVLVDEEDRRYFKQQEITLYRLKEETS

Variants of: B1
Assay: Microscale Thermophoresis (MST); parent: 18 nM

| Kd [nM] | Variant |
| --- | --- |
| 525 | chain 1 MNYLLGAFKPACNISITFSDGKNRKQVPMKKENGQTALVPLFHSQDTISGKVCIEPYQGKKVEHNGVKVELLGQIEMYFDRGNFADFTSLVRALDVPGEIYERKTYPFEFPTVEMPYETYNGVNVRLRYVLKVTVTRGYAGSILEYQELVVRNYAPLPDINNSIKMEVGIEDCLHIEFEYNKSKYHLKDVILGKIYFLLVRIKMKNMDLEIRRRESTGAGANTHVETETLAKFELMDGTPVRGESIPVRLFLAPYDLTPTHRNINNKFSVKYYLNLVLVDEEDRRYFKQQEITLYRLKEDASS [chain 1 Y85A, chain 1 E93A] |
